Molecular target: SNAP25 197 from lysate of BoNT/A treated N2-42F cells (mouse, UniProt P60879 1-197)
Test: sandwich ELISA; detection of captured SNAP25 197 from N2-42F lysate

Sequence of SNAP25 197 from lysate of BoNT/A treated N2-42F cells (P60879 1-197 limits assumed): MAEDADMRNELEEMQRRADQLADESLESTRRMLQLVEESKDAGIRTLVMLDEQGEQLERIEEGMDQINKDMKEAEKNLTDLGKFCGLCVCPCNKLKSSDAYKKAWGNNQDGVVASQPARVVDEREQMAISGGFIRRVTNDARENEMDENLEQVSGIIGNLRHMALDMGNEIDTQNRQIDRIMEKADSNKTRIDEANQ

B1: C16 IgG-HRP 접합체 (antibody, V domains shown)
VH: EVQLQQSGAELARPGASVQMSCKAFGYTFTNYTMHWVRQRPGQGLEWIGFINPSSDYTNYNQKFKDKATLSADKSSSTAYMQLSSLTSEDSAVYYCARRIFYNGRTYAAMDYWGQGTSVTVSS
VL: DIVMTQSPASLAVSLGQRATISCRASKSVSSSGYSYMHWYQQKPGQPPKLLIYLASNLESGVPARFSGSGSGTDFTLNIHPVEEEDAATYYCQHSRELPLTFGAGTKLELK
  binding result: binds
